Consider 2 molecules from publication PMC3233348 (2012).

For assay [1], the target named is methylamine dehydrogenase (MADH) (Paracoccus denitrificans) (UniProt P22619). Particulars: cited from earlier work.
Assay [2] deals with T1, methylamine dehydrogenase (MADH) (Paracoccus denitrificans, UniProt P22619).
T1 chain 1: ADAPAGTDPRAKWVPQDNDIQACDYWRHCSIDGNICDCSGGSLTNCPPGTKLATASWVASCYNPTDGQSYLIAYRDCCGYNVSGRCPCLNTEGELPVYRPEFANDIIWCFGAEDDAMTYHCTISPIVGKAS
T1 chain 2: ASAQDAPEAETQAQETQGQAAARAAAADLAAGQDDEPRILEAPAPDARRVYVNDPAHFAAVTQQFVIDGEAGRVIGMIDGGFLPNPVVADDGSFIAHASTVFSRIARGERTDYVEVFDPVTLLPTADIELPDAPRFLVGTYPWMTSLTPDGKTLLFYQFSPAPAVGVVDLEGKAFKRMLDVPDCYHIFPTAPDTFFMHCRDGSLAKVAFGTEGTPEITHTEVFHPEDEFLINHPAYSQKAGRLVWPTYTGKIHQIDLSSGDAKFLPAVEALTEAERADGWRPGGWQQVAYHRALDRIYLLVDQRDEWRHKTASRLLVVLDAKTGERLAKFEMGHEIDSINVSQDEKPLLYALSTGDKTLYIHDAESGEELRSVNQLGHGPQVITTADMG
Nature of the assay: steady-state kinetics competitive inhibition.

As to amicyanin (from UniProt P22364), the Kd in assay [1] is 5 µM.

B1: M98K amicyanin (protein)
chain: DKATIPSESPFAAAEVADGAIVVDIAKMKYETPELHVKVGDTVTWINREAMPHNVHFVAGVLGEAALKGPMKKKEQAYSLTFTEAGTYDYHCTPHPFMRGKVVVE
Consider B1, for which, in assay [2], the affinity, expressed as Ki, was 7.2 µM.

The term Kd denotes a measure of binding affinity in units of concentration. What is called Ki is a dissociation constant, usually derived from enzyme kinetics or from competition with a known ligand. Higher therefore signals weaker binding.
